Target: T1, extracellular domain recombinant protein RAGE (11629-H08H, Sino Biological Inc.) (UniProt Q15109 23-342, labeled with RED fluorescent dye NT-647-NHS (sites not given))
T1 construct: extracellular domain; Bought protein; also called Receptor for Advanced Glycation End products
Assay: MST (Microscale Thermophoresis), NT-647-labeled RAGE extracellular domain, peptide titrated 50 uM to 1.52 nM, mean of three runs
Procedure: Specifically, the binding capacity of the peptide of Example 1 or 2 to RAGE was measured using MST (Microscale Thermophoresis).
Using a kit {Monolith NT™ Protein Labeling Kit RED-NHS (L001, NanoTemper Technologies)}, an extracellular domain recombinant protein RAGE (11629-H08H, Sino Biological Inc.) was bound to a RED fluorescent dye NT-647-NHS and then purified. Thereafter, a RAGE solution in which the concentration of the RED fluorescent dye NT-647-NHS labeled RAGE in an MST buffer (50 mM Tris-HCl pH 7.4, 150 mM NaCl, 10 mM MgCl₂, 0.05% Tween-20) solution was 20 μM was prepared. Also, a peptide solution was prepared in a 16-step dilution series, in which dilution was repeated with the MST buffer until the concentration of the peptide of Example 1 or Example 2 became 1.52 nM starting from 50 μM. Thereafter, the RAGE solution and the peptide solution were mixed in amounts of 100 μl each, injected into a capillary tube and then placed in the order of concentration in a Monolith NT. 115 tray (G009, NanoTemper technologies). The software was operated in accordance with the Monolith NT. 115 operating method. The same procedure was repeated three times, and the mean value of Kd (dissociation constant) was obtained.

T1 sequence (Q15109 23-342 limits assumed): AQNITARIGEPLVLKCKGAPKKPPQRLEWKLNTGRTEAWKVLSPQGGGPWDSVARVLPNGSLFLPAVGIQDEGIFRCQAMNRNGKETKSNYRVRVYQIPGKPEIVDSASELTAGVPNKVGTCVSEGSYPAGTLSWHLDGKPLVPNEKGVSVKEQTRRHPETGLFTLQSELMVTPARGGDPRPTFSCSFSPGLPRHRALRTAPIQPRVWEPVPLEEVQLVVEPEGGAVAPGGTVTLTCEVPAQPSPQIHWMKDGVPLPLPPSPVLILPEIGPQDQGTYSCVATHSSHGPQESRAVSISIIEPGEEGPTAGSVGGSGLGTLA

Row | Binder | Kd [nM]
1 | DGEF (Synthetic peptide made by AnyGen Co., Ltd) [peptide of Example 2 (DGEF)] | 80.9
2 | DGEFF (Synthetic peptide made by AnyGen Co., Ltd) [peptide of Example 1 (DGEFF)] | 76.9
